Measured values: article PMC9912261

Key:
[1] = tested on: Lys1 (position 1, -----K-----); assay: NMR; conditions: ambient (SI general details say 1H NMR spectra were recorded at ambient temperature); none stated; pH adjusted with HCl/NaOH; free small peptide derivative in solution
[2] = tested on: Lys1 (position 1, -----KG----); assay: NMR; conditions: ambient (SI general details say 1H NMR spectra were recorded at ambient temperature); none stated; pH adjusted with HCl/NaOH; free small peptide derivative in solution

Question: How did the pKa [1] turn out when “Ac-Lys-CN (N-acetyl-lysine nitrile) (synthetic)” was run?
Answer: The pKa was “approximately 10.4”.

Question: How did the pKa [2] turn out when “Ac-Lys-Gly-SH (N-acetyl-lysyl-glycine thioacid) (synthetic)” was run?
Answer: The pKa was “approximately 10.8”.

Question: With “Ac-Lys-OH (N-alpha-acetyl-lysine) (synthetic)” as the substance, how does the pKa [1] read?
Answer: The pKa was “approximately 10.8”.

Question: For “Ac-Lys-SH (N-acetyl-lysine thioacid) (synthetic)”, which pKa [1] is on record?
Answer: Its pKa is “approximately 10.8”.
